Reference: patent US20050277575A1, “Therapeutic compositions and methods for treating diseases that involve angiogenesis” (priority 2004, published 2005)

Molecular target: T1, t-PA-mediated plasminogen activation (Homo sapiens, UniProt P00750)
T1 construct: purchased Calbiochem
Assay: t-PA-dependent conversion of plasminogen to plasmin, effect of S100A4 (Example 11)
Format: biochemical
Method: Non-active plasminogen can be converted to active protease plasmin by tissue type (t-PA) or urokinase type (u-PA) plasminogen activators. Except for its well-known fibrinolytic activity, plasmin also directly and indirectly, by activation of matrix metalloproteinases (MMPs), participates in the degradation of extracellular matrix that is important for the angiogenesis and tumor invasion. The kinetics of t-PA-mediated plasminogen activation was determined by measuring amidolytic activity of the plasmin generated during plasminogen activation. The reaction was performed with the plasmin substrate Chromozyme PL, tosyl-glycyl-prolyl-lysin-4-nitranilide-acetate (Roche) in the final concentration of 125 μM in a buffer consisting of 50 mM Tris-HCl, pH 7.4, 100 mM NaCl, 5 mM of CaCl2 or 5 mM of EGTA, and 150 nM of [Glu] plasminogen (Calbiochem). The reaction was preincubated with or without 2.5 μM S100A4 at 24 C° for 1 h in 96-well plates. The reaction was initiated by addition of t-PA (Calbiochem) up to 5 nM concentration, final volume 100 μl. Kinetic of substrate hydrolysis was measured at 2 min intervals at 405 nm in Spectramax Plus 384 spectrophotometer (Molecular Devices). Analysis of kinetics curves (Vmax, time to Vmax, and initial slope of kinetic data converted to A405 versus time^2) was performed with the help of Softmax PRO program (Molecular Devices).
Kinetics of plasminogen to plasmin conversion consists of three parts. As shown in FIG. #3 curves 1 and 2 for t-PA, during first 1500 s the reaction is second order that corresponds to conversion of plasminogen to plasmin and consequent cleavage of chromogenic substrate by plasmin. The second part of reaction is linear, for which Vmax can be calculated. It starts after total conversion of plasminogen to plasmin and corresponds to cleavage of chromogenic substrate by plasmin with constant rate. In the third part of reaction, after 2700 s, the reaction is slowing down that corresponds to depletion of chromogenic substrate and finally the reaction reaches a plateau when all substrate is cleaved. As follows from the comparison of curves 1 and 2, t-PA along converted plasminogen to plasmin equally efficiently in the presence or absence of calcium. Neither conversion of plasminogen to plasmin took place in the absence of t-PA no S110A4 induced such conversion by itself, curves 5 and 6. In the presence of S100A4 linear part of reaction starts substantially earlier, which means that total conversion of plasminogen to plasmin was accelerated. Kinetic parameters for t-PA along and for combination of t-PA with S100A4 are represented in Table 4. […] S100A4 accelerated conversion of plasminogen to plasmin in calcium independent manner, curves 3 and 4.

[1] = Ca (5 mM CaCl2), with or without 2.5 μM S100A4

T1 sequence (P00750 36-562): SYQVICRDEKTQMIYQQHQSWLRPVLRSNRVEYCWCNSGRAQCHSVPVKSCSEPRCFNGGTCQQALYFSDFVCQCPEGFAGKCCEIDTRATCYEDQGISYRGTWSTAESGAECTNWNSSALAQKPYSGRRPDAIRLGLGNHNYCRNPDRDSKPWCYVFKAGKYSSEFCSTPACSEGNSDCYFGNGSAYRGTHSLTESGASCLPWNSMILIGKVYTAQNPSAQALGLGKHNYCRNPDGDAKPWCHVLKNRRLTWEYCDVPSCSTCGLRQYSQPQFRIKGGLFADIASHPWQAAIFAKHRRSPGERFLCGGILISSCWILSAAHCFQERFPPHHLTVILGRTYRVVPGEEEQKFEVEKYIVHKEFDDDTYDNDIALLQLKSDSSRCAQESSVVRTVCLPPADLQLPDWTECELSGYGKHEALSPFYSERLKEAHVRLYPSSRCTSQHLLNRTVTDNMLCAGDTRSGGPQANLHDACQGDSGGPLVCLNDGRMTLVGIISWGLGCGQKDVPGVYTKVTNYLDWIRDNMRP

S100A4: recombinant human S100A4 protein cloned from human placenta total RNA, Ca-binding protein of S100 family
increase of initial rate of plasmin generation (2.5 μM S100A4 versus t-PA alone): more than 3 fold | Slope (initial rate of plasmin generation) [1]: 0.250 ΔA405/t^2(min^2) * 1000 | Time to Vmax [1]: 1440 s
